Experimental data as given in publication PMC7082060, “Structure of mouse coronavirus spike protein complexed with receptor reveals mechanism for viral entry” (PLoS Pathogens, 2020).

How the values were obtained:
[1] = molecular target: MHV spike ectodomain (S-e), strain A59 (mouse hepatitis coronavirus (MHV), strain A59) (UniProt P11224); assay: cryo-EM structure
[2] = molecular target: MHV spike ectodomain (S-e), strain A59 (mouse hepatitis coronavirus (MHV), strain A59) (UniProt P11224)
[3] = molecular target: the molecule itself; assay: cryo-EM structure

Mouse CEACAM1a ectodomain (D1-D4), C-terminal His6 tag (receptor), sequence (P31809 1-202): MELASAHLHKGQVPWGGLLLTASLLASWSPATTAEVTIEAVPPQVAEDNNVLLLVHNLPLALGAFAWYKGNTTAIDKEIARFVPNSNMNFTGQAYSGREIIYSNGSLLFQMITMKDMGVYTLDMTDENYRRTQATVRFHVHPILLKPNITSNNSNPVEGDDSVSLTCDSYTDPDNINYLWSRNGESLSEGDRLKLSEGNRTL

Row | Molecule | stoichiometry N (CEACAM1a molecules per S-e trimer) [1] | negative-stain EM: share of S-e molecules in the post-fusion conformation after high concentration of trypsin with CEACAM1a (11.75% without CEACAM1a) [2] [%] | stoichiometry N [3]
1 | Mouse CEACAM1a ectodomain (D1-D4), C-terminal His6 tag (receptor) | 3 | 50.9 | 
2 | MHV spike ectodomain (S-e), strain A59 (domain or fragment, also called MHV S-e; recombinant MHV S-e; not shown: GCN4 trimerization tag, C-terminal, kept; His6, C-terminal, kept) YIGDFRCIQLVNSNGANVSAPSISTETVEVSQGLGTYYVLDRVYLNATLLLTGYYPVDGSKFRNLALRGTNSVSLSWFQPPYLNQFNDGIFAKVQNLKTSTPSGATAYFPTIVIGSLFGYTSYTVVIEPYNGVIMASVCQYTICQLPYTDCKPNTNGNKLIGFWHTDVKPPICVLKRNFTLNVNADAFYFHFYQHGGTFYAYYADKPSATTFLFSVYIGDILTQYYVLPFICNPTAGSTFAPRYWVTPLVKRQYLFNFNQKGVITSAVDCASSYTSEIKCKTQSMLPSTGVYELSGYTVQPVGVVYRRVANLPACNIEEWLTARSVPSPLNWERKTFQNCNFNLSSLLRYVQAESLFCNNIDASKVYGRCFGSISVDKFAVPRSRQVDLQLGNSGFLQTANYKIDTAATSCQLHYTLPKNNVTINNHNPSSWNRRYGFNDAGVFGKNQHDVVYAQQCFTVRSSYCPCAQPDIVSPCTTQTKPKSAFVNVGDHCEGLGVLEDNCGNADPHKGCICANNSFIGWSHDTCLVNDRCQIFANILLNGINSGTTCSTDLQLPNTEVVTGICVKYDLYGITGQGVFKEVKADYYNSWQTLLYDVNGNLNGFRDLTTNKTYTIRSCYSGRVSAAFHKDAPEPALLYRNINCSYVFSNNISREENPLNYFDSYLGCVVNADNRTDEALPNCDLRMGAGLCVDYSKSRRAHRSVSTGYRLTTFEPYTPMLVNDSVQSVDGLYEMQIPTNFTIGHHEEFIQTRSPKVTIDCAAFVCGDNTACRQQLVEYGSFCVNVNAILNEVNNLLDNMQLQVASALMQGVTISSRLPDGISGPIDDINFSPLLGCIGSTCAEDGNGPSAIRGRSAIEDLLFDKVKLSDVGFVEAYNNCTGGQEVRDLLCVQSFNGIKVLPPVLSESQISGYTTGATAAAMFPPWSAAAGVPFSLSVQYRINGLGVTMNVLSENQKMIASAFNNALGAIQDGFDATNSALGKIQSVVNANAEALNNLLNQLSNRFGAISASLQEILTRLEAVEAKAQIDRLINGRLTALNAYISKQLSDSTLIKVSAAQAIEKVNECVKSQTTRINFCGNGNHILSLVQNAPYGLYFIHFSYVPISFTTANVSPGLCISGDRGLAPKAGYFVQDDGEWKFTGSSYYYPEPITDKNSVIMSSCAVNYTKAPEVFLNTSIPNPPDFKEELDKWFKNQTSIAPDLSLDFEKLNVT |  |  | 3
